Patent publication US20140315826A1, “POLYMERIC CONJUGATES OF C-1 INHIBITORS” (Belrose Pharma, Inc., priority 2012, published 2014)

Key:
[1] = molecular target: T1, C1 esterase (UniProt P09871); test: cell-based or functional assay
T1 sequence (looked up): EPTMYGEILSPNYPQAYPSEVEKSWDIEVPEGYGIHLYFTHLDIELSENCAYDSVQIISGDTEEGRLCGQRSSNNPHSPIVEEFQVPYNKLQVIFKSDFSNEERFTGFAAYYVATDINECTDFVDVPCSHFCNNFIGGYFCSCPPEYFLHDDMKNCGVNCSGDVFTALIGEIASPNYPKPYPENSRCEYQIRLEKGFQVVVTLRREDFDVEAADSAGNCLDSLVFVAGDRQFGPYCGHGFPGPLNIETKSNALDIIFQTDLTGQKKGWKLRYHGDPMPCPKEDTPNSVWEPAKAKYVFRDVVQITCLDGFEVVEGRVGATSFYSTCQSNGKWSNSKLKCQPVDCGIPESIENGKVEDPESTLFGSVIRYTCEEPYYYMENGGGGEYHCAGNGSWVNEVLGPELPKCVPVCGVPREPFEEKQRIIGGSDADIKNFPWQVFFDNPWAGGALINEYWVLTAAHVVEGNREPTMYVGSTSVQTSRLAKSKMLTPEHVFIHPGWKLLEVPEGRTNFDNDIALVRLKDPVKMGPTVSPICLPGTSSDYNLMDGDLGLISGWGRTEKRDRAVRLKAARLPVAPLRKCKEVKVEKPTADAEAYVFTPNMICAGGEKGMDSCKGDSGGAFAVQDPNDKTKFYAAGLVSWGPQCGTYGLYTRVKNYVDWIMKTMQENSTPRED

[2] = molecular target: T2, kallikrein (Homo sapiens, UniProt P03952); test: cell-based or functional assay
Target sequence in this assay (P03952 20-638 limits assumed): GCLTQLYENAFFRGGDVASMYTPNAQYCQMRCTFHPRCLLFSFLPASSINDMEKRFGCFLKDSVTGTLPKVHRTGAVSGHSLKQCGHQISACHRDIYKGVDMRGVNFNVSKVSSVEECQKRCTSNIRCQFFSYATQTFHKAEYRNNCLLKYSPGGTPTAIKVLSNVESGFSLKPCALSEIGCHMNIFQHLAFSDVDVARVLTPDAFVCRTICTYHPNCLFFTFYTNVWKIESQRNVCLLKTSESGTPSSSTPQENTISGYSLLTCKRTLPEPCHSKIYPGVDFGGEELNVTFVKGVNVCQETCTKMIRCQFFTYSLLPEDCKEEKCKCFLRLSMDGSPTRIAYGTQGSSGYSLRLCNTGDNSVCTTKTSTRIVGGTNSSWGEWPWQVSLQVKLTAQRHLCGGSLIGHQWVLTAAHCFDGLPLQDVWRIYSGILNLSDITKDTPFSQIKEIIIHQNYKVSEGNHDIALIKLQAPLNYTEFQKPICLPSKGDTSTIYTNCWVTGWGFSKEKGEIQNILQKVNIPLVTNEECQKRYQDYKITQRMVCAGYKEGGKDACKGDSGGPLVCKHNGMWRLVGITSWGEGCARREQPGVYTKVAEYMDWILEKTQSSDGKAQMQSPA

[3] = molecular target: T3, C1 esterase (Homo sapiens, UniProt P09871); test: C1 INH activity assay: inhibition of C1 esterase activity; assay type: biochemical; settings: for Activity of C1 Esterase inhibition U/mg: 96-well plate, 37° C., kinetic substrate cleavage
T3 sequence (P09871 16-688): T1 sequence (looked up)
Experimental: (§1) C1 INH activity was measured by the inhibition of C1 esterase and kallikrein activities. For the inhibition of C1 esterase activity, samples, standards, and controls were added to 96-well plate, and then C1-esterase was added. After 10 min incubation at 37° C., substrate of C1-eserasse was added. C1-esterase activity for cleavage of the substrate was monitored at 37° C. for 4 minutes kinetically. The higher C1 INH activity results in the lower C1 esterase activity or the lower cleavage rate of substrate. For the inhibition of kallikrein activity, EC50 was used to evaluate PEG-C1 INH activity. Lower EC50 value indicates higher activity of kallikrein inhibition.

[4] = molecular target: T2, kallikrein; test: C1 INH activity assay: inhibition of kallikrein activity; assay type: biochemical; settings: lower EC50 = higher activity
Experimental: as §1
Target sequence in this assay (P03952 20-638): as the sequence (P03952 20-638 limits assumed) above

[5] = Conjugate stability on SDS gel (heating, reduction, acid treatment); assay type: physicochemical
Experimental: The concentration of PEGylated C1 INH was determined by UV at 280 nm (extinction coefficient of C1 INH was 0.39 mL/mg·cm). Sample at 5 μg or 10 μg was loaded into the gel without sample reduction and heating for electrophoresis. In a separate experiment, the samples were heated at 70° C. for 7 minutes in the presence or absence of 75 mM β-mercaptoethanol in gel buffer. There was no evidence of conjugate breakdown under such conditions. […] The protein bands were visualized after simple blue stain. The density of the image was obtained on Molecular Dynamics. […] There were eight PEG (20 or 30k) strands attached per C1 INH as analyzed SEC-MALS.

Chain of PEG-20k-Glycan-C1 INH (5 mg scale) (P05155 23-500 limits assumed): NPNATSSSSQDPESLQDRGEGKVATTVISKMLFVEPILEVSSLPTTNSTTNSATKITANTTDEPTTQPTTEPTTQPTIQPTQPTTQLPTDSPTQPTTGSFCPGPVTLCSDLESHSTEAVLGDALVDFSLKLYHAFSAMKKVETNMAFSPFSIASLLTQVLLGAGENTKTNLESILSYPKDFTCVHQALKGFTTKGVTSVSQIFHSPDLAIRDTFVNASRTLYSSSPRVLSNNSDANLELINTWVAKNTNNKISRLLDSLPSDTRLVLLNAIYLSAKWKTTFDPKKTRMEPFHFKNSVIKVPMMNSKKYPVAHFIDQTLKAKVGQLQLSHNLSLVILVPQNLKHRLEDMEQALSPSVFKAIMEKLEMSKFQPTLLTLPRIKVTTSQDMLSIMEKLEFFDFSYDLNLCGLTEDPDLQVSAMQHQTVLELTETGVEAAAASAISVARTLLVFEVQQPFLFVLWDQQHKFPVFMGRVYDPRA
Chain of PEG-20k-Glycan-C1 INH (60 mg scale) (P05155 23-500 limits assumed): as above
Chain of C1 Esterase Inhibitor (C1 INH), native (P05155 23-500 limits assumed): as above

Substance | Activity of C1 Esterase inhibition, % C1 INH activity [1] | Activity of C1 Esterase inhibition, U/mg [1] | Activity of Kallikrein inhibition, % C1 INH activity [2] | Activity of Kallikrein inhibition, EC50 [2] | Activity of C1 Esterase inhibition U/mg [3] | EC50 [4] | also measured
PEG-20k-Glycan-C1 INH (60 mg scale) (from UniProt P05155 23-500) | 73% | 5.1 U/mg | 67% | 300 nM | – | – | –
PEG-20k-Glycan-C1 INH (60 mg scale): C1 INH oxidized with periodate at glycan and conjugated with PEG-hydrazide 20k; eight PEG strands per C1 INH | – | – | – | – | 5.1 U/mg | 300 nM | % C1 INH activity on C1 esterase inhibition, small scale ([3]; small scale batch, relative to native C1 INH): 97%; Stability of conjugate under acidic conditions ([5]; 0.1% TFA or sodium acetate, pH 4.7): releasable; Stability of conjugate to heating and reducing at neutral pH ([5]; 70° C. for 7 minutes, with or without 75 mM β-mercaptoethanol, SDS gel): stable
C1 INH: C1 Esterase Inhibitor obtained from Athens Research & Technology, MW 73000 Da by MALDI; unmodified reference protein | – | – | – | – | 7.0 U/mg | 200 nM | –

Continued, in another order:

Activity of C1 Esterase inhibition, % C1 INH activity [1] | Activity of C1 Esterase inhibition, U/mg [1] | Activity of Kallikrein inhibition, % C1 INH activity [2] | Activity of Kallikrein inhibition, EC50 [2] | Activity of C1 Esterase inhibition U/mg [3] | EC50 [4] | Substance | also measured
100% | 7 U/mg | 100% | 200 nM | – | – | C1 Esterase Inhibitor (C1 INH), native (from UniProt P05155 23-500) | –
– | – | – | – | 6.6 U/mg | – | PEG-20k-Glycan-C1 INH (5 mg scale): Same PEG-20k-hydrazide glycan conjugate of C1 INH prepared at 5 mg scale; PEG number pending | –
94% | 6.6 U/mg | – | – | – | – | PEG-20k-Glycan-C1 INH (5 mg scale) (from UniProt P05155 23-500) | % C1 INH activity on C1 esterase inhibition (small scale) [1]: 97%
